According to patent US20240101645A1 (HENRY M JACKSON FOUNDATION FOR THE ADVANCEMENT OF MILITARY …, published 2024):

T1: HCoV-NL63 spike antigens (bead panel) (HCoV-NL63, UniProt Q6Q1S2 19-1296)
T1 sequence: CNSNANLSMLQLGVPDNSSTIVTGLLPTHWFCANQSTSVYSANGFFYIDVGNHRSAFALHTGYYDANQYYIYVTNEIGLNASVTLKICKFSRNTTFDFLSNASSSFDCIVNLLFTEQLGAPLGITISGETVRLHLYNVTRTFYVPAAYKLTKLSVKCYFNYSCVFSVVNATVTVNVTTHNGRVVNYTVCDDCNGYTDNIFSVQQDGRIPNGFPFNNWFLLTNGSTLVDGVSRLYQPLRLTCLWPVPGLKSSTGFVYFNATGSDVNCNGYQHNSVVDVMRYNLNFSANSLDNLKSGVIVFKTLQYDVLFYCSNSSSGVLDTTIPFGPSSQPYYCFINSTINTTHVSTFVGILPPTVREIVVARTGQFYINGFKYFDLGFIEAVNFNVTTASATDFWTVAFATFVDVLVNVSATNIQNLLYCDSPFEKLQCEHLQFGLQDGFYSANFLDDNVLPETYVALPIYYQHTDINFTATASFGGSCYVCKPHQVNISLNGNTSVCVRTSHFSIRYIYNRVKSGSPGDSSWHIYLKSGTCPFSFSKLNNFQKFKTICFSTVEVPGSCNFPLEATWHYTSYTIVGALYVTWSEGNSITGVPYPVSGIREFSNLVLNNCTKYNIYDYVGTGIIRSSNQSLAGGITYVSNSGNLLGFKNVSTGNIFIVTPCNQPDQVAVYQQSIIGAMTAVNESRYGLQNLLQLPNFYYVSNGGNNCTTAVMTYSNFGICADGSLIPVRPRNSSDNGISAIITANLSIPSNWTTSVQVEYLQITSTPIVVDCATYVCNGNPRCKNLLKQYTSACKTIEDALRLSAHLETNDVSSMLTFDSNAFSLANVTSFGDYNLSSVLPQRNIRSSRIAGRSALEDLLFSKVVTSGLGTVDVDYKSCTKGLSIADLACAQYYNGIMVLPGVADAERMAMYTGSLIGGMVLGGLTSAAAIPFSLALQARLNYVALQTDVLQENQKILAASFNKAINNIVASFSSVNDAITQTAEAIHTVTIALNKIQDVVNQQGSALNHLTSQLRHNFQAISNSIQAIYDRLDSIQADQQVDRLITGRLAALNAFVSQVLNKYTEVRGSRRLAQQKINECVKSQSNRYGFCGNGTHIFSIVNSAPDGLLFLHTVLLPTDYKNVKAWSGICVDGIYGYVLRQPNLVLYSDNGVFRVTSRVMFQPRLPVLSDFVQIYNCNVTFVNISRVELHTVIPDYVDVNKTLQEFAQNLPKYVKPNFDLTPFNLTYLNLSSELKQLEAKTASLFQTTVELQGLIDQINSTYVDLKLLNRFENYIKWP

T2: HCoV-OC43 spike antigens (bead panel) (HCoV-OC43, UniProt P36334 14-1297)
T2 sequence: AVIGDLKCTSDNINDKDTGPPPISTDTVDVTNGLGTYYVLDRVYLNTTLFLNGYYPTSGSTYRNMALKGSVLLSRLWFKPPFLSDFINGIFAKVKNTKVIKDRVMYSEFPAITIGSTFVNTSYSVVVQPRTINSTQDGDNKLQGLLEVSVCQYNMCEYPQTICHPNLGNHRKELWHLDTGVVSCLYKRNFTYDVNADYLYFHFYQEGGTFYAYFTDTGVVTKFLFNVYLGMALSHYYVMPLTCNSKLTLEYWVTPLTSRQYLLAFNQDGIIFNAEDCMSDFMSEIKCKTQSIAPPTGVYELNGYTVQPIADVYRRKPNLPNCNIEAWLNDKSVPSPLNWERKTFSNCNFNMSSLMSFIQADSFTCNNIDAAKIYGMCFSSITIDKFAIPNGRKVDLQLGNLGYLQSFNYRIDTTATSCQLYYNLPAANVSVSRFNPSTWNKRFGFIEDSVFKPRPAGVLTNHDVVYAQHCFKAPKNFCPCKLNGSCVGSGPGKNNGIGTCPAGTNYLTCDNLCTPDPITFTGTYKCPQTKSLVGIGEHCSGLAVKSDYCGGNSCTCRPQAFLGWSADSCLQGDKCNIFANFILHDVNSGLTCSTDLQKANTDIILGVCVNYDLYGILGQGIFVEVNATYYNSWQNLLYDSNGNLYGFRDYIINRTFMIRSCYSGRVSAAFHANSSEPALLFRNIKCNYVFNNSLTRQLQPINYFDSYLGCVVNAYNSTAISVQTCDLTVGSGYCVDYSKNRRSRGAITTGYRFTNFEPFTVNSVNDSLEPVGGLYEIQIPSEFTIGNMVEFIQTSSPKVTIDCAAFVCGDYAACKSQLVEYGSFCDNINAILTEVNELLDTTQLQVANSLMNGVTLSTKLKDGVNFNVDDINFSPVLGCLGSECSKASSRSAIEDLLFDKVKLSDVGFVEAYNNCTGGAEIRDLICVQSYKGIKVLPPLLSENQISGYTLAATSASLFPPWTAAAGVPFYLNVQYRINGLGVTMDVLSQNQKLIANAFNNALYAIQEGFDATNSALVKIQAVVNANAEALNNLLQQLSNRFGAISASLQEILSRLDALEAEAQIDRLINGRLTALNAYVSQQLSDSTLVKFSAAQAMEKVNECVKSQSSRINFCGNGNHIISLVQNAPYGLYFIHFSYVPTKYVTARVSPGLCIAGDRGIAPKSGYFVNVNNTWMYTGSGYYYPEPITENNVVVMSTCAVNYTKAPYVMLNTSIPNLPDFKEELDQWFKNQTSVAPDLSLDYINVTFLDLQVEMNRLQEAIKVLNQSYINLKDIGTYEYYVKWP

B1: COV_2048 (antibody, V domains shown)
VH: QVQLQESGPGLVKPSETLSLTCTVSGGSISNTSYYWGWIRQPPGKGLEWIGSIYRSGSTYYNPSLKSRVTISIDTSKNQFTLKLSSVTAADTAVYYCARDYYGDYSAKPMEYWGQGTLVTVSS
VL: QSALTQPRSVSGSPGQSVTISCTGTSSDVGGYNYVSWYQQHPGKAPKLLIYDVSKRPSGVPDRFSGSKSGNTASLTISGLQAEDEADYYCCSYAGSYVVFGGGAKLTVLG
notes: human IgG1
B2: COV_2004 (antibody, V domains shown)
VH: QVQLVQSGAEVKKPGASVKVSCKASGYTFTGYYMHWVRQAPGQGLEWMGRINPSSGGTNYAQKFQGRVTMTRDTSISTAYMELSSLRSDDTAVYYCATDGDDGENWFDPWGQGTLVIVSS
VL: DIQMTQSPSSLSASVGDRVTITCRASQGISSWLAWYQQKPEKAPKSLIYAASSLQSGVPSRFSGSGSGTDFTLTISSLQPEDFATYYCQQYNSYPYTFGQGTKLEIK
notes: human IgG1
B3: COV_1201 (antibody, V domains shown)
VH: QVQLVQSGAEVKKPGASMKVSCKASGYTFTGYYIHWVRQAPGQGLEWMGRINPNSGGTNYAQKFQGRVTMTRDTSISTAYMELSRLRSDDTAVYYCAREYYYVPYGMDVWGQGTTVTVSS
VL: QSALTQPASVSGSPGQSITISCTGTSSDVGGYNFVSWYQHHPGKAPKLMIYEVSNRPSGVSNRFSGSKSGNTASLTISGLQAEDEADYYCSSYTSSSTYVFGTGTKVTVL
notes: human IgG1
B4: COV_2077 (antibody, V domains shown)
VH: QVQLQESGPGLVKPSETLSLTCTVSGGSISSYSWSWIRQPPGKGLEWIGYIYYSGSTNYNPSLKSRVTISVDTSKNQFSLKLSSVTAADTAVYYCARESMGRYSLELRQPESAFDYWGRGTLVTVSS
VL: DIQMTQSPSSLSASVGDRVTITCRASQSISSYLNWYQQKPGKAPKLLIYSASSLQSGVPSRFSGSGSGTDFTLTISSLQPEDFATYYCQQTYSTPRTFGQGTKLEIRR
notes: human IgG1
B5: COV_1172 (antibody, V domains shown)
VH: QVQLQESGPGLVKPSETLSLTCTVSGGSIRSYYWSWIRQPPGKGLEWIGYIYYSGSTNYSPSLKSRVTISVDTSKNQFSLKLNSVTAADTAVYYCARRGLGYCSGDSCSNAFDIWGQGTMVTVSS
VL: DIQMTQSPSSLSASVGDRVTITCRASQSISSYLNWYQQKPGRAPELLIYDASSLQSGVPSGFSGSGSGTDFTLTISSLQPEDFATYYCQQSYSTPFTFGPGTKVDIKR
notes: human IgG1
B6: COV_2093 (antibody, V domains shown)
VH: EVQLVESGGGLVQPGGSLRLSCAASGFMFNRFWMSWVRQAPGKGLEWVTNIKQDGSEKNYVDSVKGRFTISRDNAKNSLYLQMNSLRAEDTAVYYCARDGLYYDFRSPSPFYGMDVWGQGTTVTVSS
VL: DIQMTQSPSSLSASVGDRVTITCRASQSISSYLNWYQHKSGKAPKLLIYAASRLQSGVPSRFSGSGSGTDFTLTIVSLQPEDLATYYCQQSYSTPRTFGGGTKVEIKR
notes: human IgG1
B7: COV_1166 (antibody, V domains shown)
VH: EVQLVESGGGLVQPGGSLRLSCAVSGFTFRSFWMSWVRQTPGKGLEWVANIKEDGSEKYYVDSVKGRFTISRDNAKNSLYLQMNSLRAEDTAVYYCAREGRWELLGFAFDIWGQGTMVTVSS
VL: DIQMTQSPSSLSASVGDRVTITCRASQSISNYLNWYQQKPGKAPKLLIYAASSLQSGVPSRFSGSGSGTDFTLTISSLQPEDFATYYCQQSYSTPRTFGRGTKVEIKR
notes: human IgG1
B8: COV_2008 (antibody, V domains shown)
VH: QVRVVQSGAEVKNPGASVKVSCKVSGYTLTELSIHWVRQAPGNGLEWMGGFDPEDGETIYAQKFQGRVTMTEDTSTDTAYMELSSLRSDDTAVYYCATAGAITGTPRNFYYYYGMDVWGQGTTVTVSS
VL: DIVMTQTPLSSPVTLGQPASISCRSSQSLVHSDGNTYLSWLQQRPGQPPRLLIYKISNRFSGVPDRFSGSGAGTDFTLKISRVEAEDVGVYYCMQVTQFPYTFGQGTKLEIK
notes: human IgG1
B9: COV_1144 (antibody, V domains shown)
VH: EVQLVESGGGLVQPGGSLRLSCAASGFTFRSFWMSWVRQAPGKGLEWVANIKEDASEKHYVDPVKGRFTISRDNAKNSLYLQLNSLRAEDMAVYYCARVGRGYCTNGLCYTAFEYWGQGTLVTVSS
VL: DIQMTQSPSSLSASVGDRVTITCRTSQSISNYLNWYQQKPGKAPKLLIYAASSLQSGVPSRFSGSGSGTDFTLTISSLQPEDFATYYCQQSYSTAWTFGQGTKVEIRR
notes: human IgG1
B10: COV_1149 (antibody, V domains shown)
VH: QVQLVESGGGVVQPGRSLRLSCAASGFTFSSYGMHWVRQAPGKGLEWVAVISYDGSNKYYADSVKGRFTISRDNSKNTLYLQMNSLRAEDTAVYYCAKTGGGYSYGLGNVWGQGTLVTVSS
VL: QSALTQPASVSGSPGQSITISCTGTSSDVGGYNYVSWYQQHPGKAPKLMIYDVSNRPSGVSNRFSGSKSGNTASLTISGLQAEDEADYYCSSYTSSSTLVVFGGGTKLTVLG
notes: human IgG1
B11: COV_2056 (SEQ ID NO:792/797) (antibody, V domains shown)
VH: EVQLVESGGGVVQPGRSLRLSCAASGFTFSIYGMHWVRQAPGKGLEWVALISYDGTNKYYADSVKGRFSISRDDSKNTLYLQMNSLRPEDTAVYYCAKVLMMGDSSGFSLGDAFDIWGQGTMVTVSS
VL: DIQMTQSPSSVSASVGDRVTITCRASQGISNWLAWYQQKPGKAPKLLIYAASSLQSGVPSRFSGSVSGTDFTLTISSLQPEDFATYYCQQANSFPLTFGGGTKVDIKR
B12: COV_1151 (antibody, V domains shown)
VH: QVQVQQWGAGLLKPSETLSLTCAVYGGSFNNYYWSWIRQPPGKGLEWIGEINHSGSTNYNPSLMSRVTISVDTSKNQFSLKLTSVTAADTAVYFCARGLPVTTFFSSYYGMDVWGQGTTVTVSS
VL: EIVLTQSPGTLSLSPGERATLSCRASQSVSRTYLAWYQQKPGQAPRLLIYGASSRATGIPDRFSGSGSGTDFTLTISRLEPEDFAVYYCQHYGSSPWTFGQGTKVEIRR
notes: human IgG1
B13: COV_1170 (antibody, V domains shown)
VH: QVQLVESGGGVVQPGRSLRLSCAASGFTFSTYAMHWVRQAPGKGLEWVALISYDGSNKYYADSVKGRFTISRDNSKNTLDLQMNSLRAEDTAVYYCARSLGGYRTGFDYWGQGTLVTVSS
VL: DIQLTQSPSFLSASVGDRVTITCRASQGISSYLAWYQQKPGKAPKLLIYAASTLQSGVPSRFSGSGSGTEFTLTISSLQPEDFATYYCQQLNSYPPFTFGPGTKVDIKR
notes: human IgG1

Tests used:
[1] = biological target: T1, HCoV-NL63 spike antigens (bead panel); assay: multiplex bead assay
[2] = biological target: T2, HCoV-OC43 spike antigens (bead panel); assay: multiplex bead assay

Binder | binding result [1] | binding result [2]
B1 | no binding | no binding
B2 | no binding | –
B3 | no binding | no binding
B4 | no binding | no binding
B5 | no binding | no binding
B6 | no binding | no binding
B7 | no binding | no binding
B8 | no binding | no binding
B9 | no binding | no binding
B10 | no binding | no binding
B11 | no binding | no binding
B12 | no binding | no binding
B13 | no binding | no binding
